In patent US20180280551A1 (published 2018):

Tests used:
[1] = target: Class II MHC (mouse), on splenocytes and lymphoid organ cells (mouse); assay: FACS, splenocytes stained in vitro with different concentrations of Alexa647-labeled DC8 monomer or dimer; reference DC8 monomer
[2] = target: Class II MHC (mouse), on splenocytes and lymphoid organ cells (mouse); assay: FACS of spleen cells harvested 3 h after i.v. injection of Alexa647-labeled VHH into B6 mice; reference non-PEGylated DC8-Alexa647; no staining in the spleen of an MHC II-/- mouse
[3] = target: Class II MHC (mouse), on splenocytes and lymphoid organ cells (mouse); assay: FACS of spleen cells harvested 3 h after i.v. injection of Alexa647-labeled VHH into B6 mice; reference non-PEGylated DC8-Alexa647
[4] = target: T1, CD11b (mouse), on the CD11b+ mutuDC dendritic cell line and on cells of lymphoid organs (mouse, UniProt P05555 17-1153); assay: FACS, CD11b+ mutuDC dendritic cell line stained in vitro with Alexa647-labeled DC13 monomer or dimer; reference DC13 monomer
T1 construct: whole, on cells; Its partner chain on the cell surface is not mentioned
T1 sequence (P05555 17-1153): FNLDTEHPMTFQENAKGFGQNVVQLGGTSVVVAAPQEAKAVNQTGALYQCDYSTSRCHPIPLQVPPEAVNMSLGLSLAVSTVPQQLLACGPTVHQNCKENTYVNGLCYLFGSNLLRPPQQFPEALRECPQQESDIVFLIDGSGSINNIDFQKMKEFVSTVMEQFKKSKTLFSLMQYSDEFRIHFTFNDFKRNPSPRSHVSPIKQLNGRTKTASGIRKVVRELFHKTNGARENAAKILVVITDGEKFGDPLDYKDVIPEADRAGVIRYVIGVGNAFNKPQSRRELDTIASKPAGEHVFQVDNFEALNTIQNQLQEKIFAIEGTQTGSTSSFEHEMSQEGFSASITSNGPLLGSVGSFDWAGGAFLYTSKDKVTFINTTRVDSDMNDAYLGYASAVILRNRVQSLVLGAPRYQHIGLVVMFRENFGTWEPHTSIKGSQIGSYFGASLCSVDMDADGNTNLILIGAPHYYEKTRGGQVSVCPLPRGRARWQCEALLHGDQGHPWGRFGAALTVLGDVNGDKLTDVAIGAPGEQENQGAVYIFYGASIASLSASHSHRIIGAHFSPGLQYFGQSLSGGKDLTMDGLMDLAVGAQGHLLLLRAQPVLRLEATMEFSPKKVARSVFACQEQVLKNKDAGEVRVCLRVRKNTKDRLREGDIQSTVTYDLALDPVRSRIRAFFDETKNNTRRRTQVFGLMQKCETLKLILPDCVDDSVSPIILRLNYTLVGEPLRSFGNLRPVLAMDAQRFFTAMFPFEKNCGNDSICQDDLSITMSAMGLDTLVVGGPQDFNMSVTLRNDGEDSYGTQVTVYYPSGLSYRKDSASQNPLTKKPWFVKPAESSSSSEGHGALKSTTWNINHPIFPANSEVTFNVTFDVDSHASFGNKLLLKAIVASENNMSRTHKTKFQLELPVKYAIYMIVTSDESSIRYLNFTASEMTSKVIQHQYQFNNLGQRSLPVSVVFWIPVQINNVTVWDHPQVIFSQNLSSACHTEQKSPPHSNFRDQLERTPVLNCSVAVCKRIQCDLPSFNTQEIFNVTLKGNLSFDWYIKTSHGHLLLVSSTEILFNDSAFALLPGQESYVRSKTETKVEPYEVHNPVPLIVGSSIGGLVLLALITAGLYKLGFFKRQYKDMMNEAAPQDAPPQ
Excerpt: Cells were harvested and analyzed with FACS.
Four sortase substrates were designed and synthesized for production of dimers or PEGylated VHHs (FIG. 1). The substrates either contain two bioorthogonal handles or a handle and a flourophore. The Alexa647-labeled substrate was designed such that the reaction products could be used in FACS experiments to estimate relative in vitro binding affinities. […] The dimers were produced as exemplified in FIG. 2. For DC8 (anti Class II), splenocytes were stained with different concentrations of monomers and dimers and analyzed by FACS. For DC13 (anti CD11b), the CD11b⁺ mutuDC dendritic cell line was used. For Class II MHC and CD11b, VHH dimers bind approximately 3.3 and 2.3-fold better than their corresponding monomers respectively (FIG. 3). The in vivo binding characteristics of the VHH dimers versus monomers were evaluated. Due to the more abundant expression of Class II MHC molecules on splenocytes compared to that of CD11b, the in vivo binding affinity for anti-Class II dimers was explored. Mice were injected i.v. with equal amounts of monomers and dimers (0.25 nmol) of DC8. 2 h p.i., mice were euthanized and lymphoid organs were excised for examination. Monomers and dimers yielded different staining patterns (FIG. 3B), with the dimer showing interspersed yet more pronounced staining than the monomer, corroborating the FACS results. […]

Class II MHC (mouse), on splenocytes and lymphoid organ cells (mouse), sequence (P14434 24-256, chain 1 of 2): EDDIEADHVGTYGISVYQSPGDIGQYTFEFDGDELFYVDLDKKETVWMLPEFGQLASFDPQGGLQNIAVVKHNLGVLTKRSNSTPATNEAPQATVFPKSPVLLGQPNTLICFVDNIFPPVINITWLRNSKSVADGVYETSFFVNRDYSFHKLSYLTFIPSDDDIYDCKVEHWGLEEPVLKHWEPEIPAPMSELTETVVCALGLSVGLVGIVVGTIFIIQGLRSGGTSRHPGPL
Class II MHC (mouse), on splenocytes and lymphoid organ cells (mouse), sequence (P14483 28-265, chain 2 of 2, further chain): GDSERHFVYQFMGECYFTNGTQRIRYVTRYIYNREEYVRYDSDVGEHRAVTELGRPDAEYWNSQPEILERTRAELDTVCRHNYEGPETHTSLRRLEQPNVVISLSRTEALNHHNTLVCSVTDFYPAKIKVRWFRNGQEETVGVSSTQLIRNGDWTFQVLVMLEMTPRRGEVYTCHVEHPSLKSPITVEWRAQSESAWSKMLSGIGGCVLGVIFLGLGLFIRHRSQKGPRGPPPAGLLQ

B1: DC8-dimer (bivalent DC8, two DC8 VHHs joined through their C-termini) (VHH)
VHH: QVQLQESGGGLVQPGGSLRLSCTASGFTFSTYYMSWVRKAPGKGPEWVSVMNSSGGDTRYADFVKGRFTISRDNAKNTLYLQMNSLKPEDTALYYCAQGRSDIYPTFTRGQGTQVTVSS
modifications: Each chain is sortagged at LPET. One carries (Gly)3-Cys(maleimide-DBCO), the other (Gly)3-PEG12-Cys(X)-PEG5-Lys(azide), where X is Alexa647, Texas Red or TCO/18F-tetrazine. The two chains are joined C-terminus to C-terminus by DBCO-azide click chemistry.
fold better binding than the corresponding monomer [1]: 3.3 fold

B2: DC8-Alexa647-PEG-20 kDa (PEGylated DC8, 20 kDa PEG) (VHH)
VHH: QVQLQESGGGLVQPGGSLRLSCTASGFTFSTYYMSWVRKAPGKGPEWVSVMNSSGGDTRYADFVKGRFTISRDNAKNTLYLQMNSLKPEDTALYYCAQGRSDIYPTFTRGQGTQVTVSS
modifications: Sortagged at LPET with (Gly)3-PEG12-Cys(X)-PEG5-Lys(azide), where X is Alexa647, Texas Red or TCO/18F-tetrazine. DBCO-PEG 20 kDa is clicked onto the azide.
increase in staining versus non-PEGylated DC8 [2]: 220%

B3: DC8-Alexa647-PEG-5 kDa (PEGylated DC8, 5 kDa PEG) (VHH)
VHH: QVQLQESGGGLVQPGGSLRLSCTASGFTFSTYYMSWVRKAPGKGPEWVSVMNSSGGDTRYADFVKGRFTISRDNAKNTLYLQMNSLKPEDTALYYCAQGRSDIYPTFTRGQGTQVTVSS
modifications: Sortagged at LPET with (Gly)3-PEG12-Cys(X)-PEG5-Lys(azide), where X is Alexa647, Texas Red or TCO/18F-tetrazine. DBCO-PEG 5 kDa is clicked onto the azide.
increase in staining versus non-PEGylated DC8 [3]: 30%

B4: DC8-Alexa647-PEG-10 kDa (PEGylated DC8, 10 kDa PEG) (VHH)
VHH: QVQLQESGGGLVQPGGSLRLSCTASGFTFSTYYMSWVRKAPGKGPEWVSVMNSSGGDTRYADFVKGRFTISRDNAKNTLYLQMNSLKPEDTALYYCAQGRSDIYPTFTRGQGTQVTVSS
modifications: Sortagged at LPET with (Gly)3-PEG12-Cys(X)-PEG5-Lys(azide), where X is Alexa647, Texas Red or TCO/18F-tetrazine. DBCO-PEG 10 kDa is clicked onto the azide.
increase in staining versus non-PEGylated DC8 [3]: 100%

B5: DC13-dimer (bivalent DC13, two DC13 VHHs joined through their C-termini) (VHH)
VHH: QVQLQESGGGLVQTGGSLRLSCAASGVDFNWYSMGWFRQAPGKEREYVASIDQGGELDYAISVKGRFTISRDNAKNMVYLQMNSLKPEDTAVYYCAADFSGRGASNPDKYKYWGQGTQVTVSS
modifications: Each chain is sortagged at LPET. One carries (Gly)3-Cys(maleimide-DBCO), the other (Gly)3-PEG12-Cys(X)-PEG5-Lys(azide), where X is Alexa647, Texas Red or TCO/18F-tetrazine. The two chains are joined C-terminus to C-terminus by DBCO-azide click chemistry.
notes: This is a chemical C-to-C dimer; also called anti CD11b dimer; 18F-DC13 dimer
fold better binding than the corresponding monomer [4]: ~2.3 fold
